Numbering of substitutions follows the chain as printed. One block for each molecule: values may come before it.
Tests used:
[1] = tested on: T1, synthetic phosphotyrosine peptide Arg-Arg-Leu-Ile-Glu-Asp-Ala-Gle-Tyr-Ala-Ala-Arg-Gly, wherein the tyrosine is phosphorylated
T1 sequence: RRLIEDAEYAARG

[2] = biological target: T2, SHP-1 (Mus musculus, UniProt P29351); test: In vitro PTPase assay, GST/SHP-1; assay type: biochemical
T2 construct: made in house
Procedure: In vitro PTPase activities were measured using the commercial protein tyrosine phosphatase assay kit (Upstate Biotechnology, Inc. (“UBI”)) following established procedure known to one of skill in the art. […] Briefly, 0.01 µg of GST/PTPase fusion proteins was incubated in 50 µl of Tris buffer (10 mM Tris, pH 7.4) containing different concentrations of inhibitors or chemicals (0-1,000 µg/ml) at 22° […] 100 µl of Malachite Green solution was added and incubated for 5 minutes, and the absorbance at 660 nm was measured after 5 minutes.
To assess the reversibility of inhibition of SHP-1 by PTPase inhibitors, GST/SHP-1 fusion protein bound on glutathione beads were pre-incubated in cold Tris buffer or Tris buffer containing the PTPase inhibitors at 4° C. for 30 minutes. The beads were then either subjected to in vitro PTPase assays or washed 3 times in Tris buffer then subjected to in vitro PTPase assays.
Briefly, individual PTPases (0.1 µg/reaction) in 50 µL of PTPase buffer (50 mM Tris, pH 7.4) were incubated at 22° C. for 10 minutes or as indicated in the absence or presence of inhibitory compounds. Substrates (0.2 mM phosphotyrosine peptide) were then added and allowed to react at 22° C. for 18 hrs. PTPase activity of individual reactions was measured by adding 100 µL of malachite green solution (UBI) and then quantifying the amounts of free phosphate cleaved by the PTPase from the peptide substrate by spectrometry (OD660 nm). […] Relative PTPase activities were calculated based on the formula: (PTPase activity in the presence of an inhibitory compound/PTPase activity in the absence of the compound)× 100%. To assess the reversibility of PTPase inhibition, GST fusion proteins of the PTPases bound on glutathione beads (Pharmacia) were pre-incubated with cold Tris buffer (50 mM Tris, pH 7.0) or Tris buffer containing the inhibitor at 4° C. for 30 minutes. The beads were then washed three times in cold Tris buffer or not washed prior to subjecting to in vitro PTPase assays.

[3] = biological target: T3, MKP1 (Homo sapiens, UniProt P28562); test: In vitro PTPase assay, GST/MKP1; assay type: biochemical; conditions: section VII comparison
T3 construct: made in house; host or cells: E. coli DH5a
T3 sequence (P28562 13-367 limits assumed): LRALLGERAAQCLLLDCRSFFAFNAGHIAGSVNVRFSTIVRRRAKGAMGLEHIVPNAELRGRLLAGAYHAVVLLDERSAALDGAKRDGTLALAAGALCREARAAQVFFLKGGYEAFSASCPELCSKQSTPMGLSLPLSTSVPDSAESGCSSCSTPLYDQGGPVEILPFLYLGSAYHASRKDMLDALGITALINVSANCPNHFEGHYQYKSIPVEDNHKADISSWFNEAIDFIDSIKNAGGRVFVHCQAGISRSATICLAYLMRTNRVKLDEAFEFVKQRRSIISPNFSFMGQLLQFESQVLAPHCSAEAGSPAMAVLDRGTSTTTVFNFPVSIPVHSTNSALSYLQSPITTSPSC
Procedure: In vitro PTPase activities were measured using the commercial protein tyrosine phosphatase assay kit (Upstate Biotechnology, Inc. (“UBI”)) following established procedure known to one of skill in the art. This assay measures the in vitro dephosphorylation of a synthetic phosphotyrosine peptide of the sequence Arg-Arg-Leu-Ile-Glu-Asp-Ala-Gle-T- -yr-Ala-Ala-Arg-Gly, wherein the tyrosine is phosphorylated (SEQ ID NO: 3). Briefly, 0.01 µg of GST/PTPase fusion proteins was incubated in 50 µl of Tris buffer (10 mM Tris, pH 7.4) containing different concentrations of inhibitors or chemicals (0-1,000 µg/ml) at 22° C. for 10 minutes, followed by addition of 0.2 mM of the phosphotyrosine peptide and incubation at 22° C. for 18 hours. 100 µl of Malachite Green solution was added and incubated for 5 minutes, and the absorbance at 660 nm was measured after 5 minutes.
(§1) In vitro PTPase assays were used to determine the effects of levamisole (Sigma), pentamidine (American Pharmaceutical Partners, Inc.), and ketoconazole (Sigma) on recombinant PTPases, following established procedures (Pathak et al., J. Imumol. 167, 3391 (2001); Pathak et al., Leukemia 16, 2285 (2002), Yi et al., J. Immunol. 169, 5978 (2002)) using a synthetic phosphotyrosine peptide or DiFMUP as the substrate as detailed above in section I.A.2.

[4] = tested on: GSTm8; test: In vitro PTPase assay, GSTm8; assay type: biochemical; conditions: 3-4 μg/ml or 10-100 μg/ml
Text: as §1

[5] = biological target: T4, PRL-3 (Homo sapiens, UniProt O75365); test: In vitro PTPase assay, recombinant PRL-3; assay type: biochemical; conditions: DiFMUP substrate
T4 construct: made in house; host or cells: E. coli DH5a
T4 sequence (O75365 whole entry): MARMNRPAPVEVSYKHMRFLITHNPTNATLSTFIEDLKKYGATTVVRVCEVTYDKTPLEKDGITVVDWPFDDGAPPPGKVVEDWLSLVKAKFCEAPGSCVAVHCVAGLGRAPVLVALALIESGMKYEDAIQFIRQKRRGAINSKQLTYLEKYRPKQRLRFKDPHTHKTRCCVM
Text: Sodium stibogluconate, suramin, sodium orthovanadate and GST fusion protein of SHP-1 have been described previously (Pathak et al., J. Imumol. 167, 3391 (2001)). Meglumine antimonate was obtained from Aventis. cDNAs of human PRL-1, PRL-2 and PRL-3 coding region were derived by RT-PCR from H9 cells (Safai, et al., Lancet 1, 1438 (1984)) and inserted in frame into the pGEX vector. cDNA of PRL-1R86 was generated by recombinant DNA technique using PRL-1 cDNA as template following established procedures (Jiao, et al., Mol. Cell. Biol. 16, 6985 (1996)). GST fusion proteins of the PRL phosphatases were prepared from DH5a bacteria transformed with the pGEX fusion protein constructs as described previously (Yi, et al., Mol. Cell. Biol. 12, 836 (1992)). cDNAs encoding the PRLs tagged at the N-termini with the Flag epitope (Castrucci, et al., J. Virol. 66, 4647 (1992)) were generated via recombinant DNA technique, sequenced to confirm their identities and cloned into the pBabepuro vector (Yang, et al., Blood 91, 3746 (1998)). Anti-Flag monoclonal antibody (M2, Sigma) was purchased from a commercial source. A synthetic phosphotyrosine peptide (Arg-Arg-Leu-Ile-Glu-Asp-Ala-Gle-Tyr-Al- -a-Ala-Arg-Gly (SEQ ID NO: 3), wherein the tyrosine is phosphorylated; UBI) and DiFMUP (6,8-difluoro-4-methylumbelliferyl phosphate, Molecular Probes) were purchased as substrates for PTPase assays.
In vitro PTPase assays were used to determine the effects of compounds on recombinant PTPases, following established procedures using a synthetic phosphotyrosine peptide or DiFMUP as the substrate (Pathak et al., J. Imumol. 167, 3391 (2001)). Briefly, individual PTPases (0.1 µg/reaction) in 50 µL of PTPase buffer (50 mM Tris, pH 7.4) were incubated at 22° C. for 10 minutes or as indicated in the absence or presence of inhibitory compounds. Substrates (0.2 mM phosphotyrosine peptide) were then added and allowed to react at 22° C. for 18 hrs. PTPase activity of individual reactions was measured by adding 100 µL of malachite green solution (UBI) and then quantifying the amounts of free phosphate cleaved by the PTPase from the peptide substrate by spectrometry (OD660 nm). PTPase assays using DiFMUP as a substrate were conducted following a previously described procedure (Matter, et al., Biochem. Biophys. Res. Comm. 283, 1061 (2001)). Relative PTPase activities were calculated based on the formula: (PTPase activity in the presence of an inhibitory compound/PTPase activity in the absence of the compound)× 100%. To assess the reversibility of PTPase inhibition, GST fusion proteins of the PTPases bound on glutathione beads (Pharmacia) were pre-incubated with cold Tris buffer (50 mM Tris, pH 7.0) or Tris buffer containing the inhibitor at 4° C. for 30 minutes. The beads were then washed three times in cold Tris buffer or not washed prior to subjecting to in vitro PTPase assays.

[6] = biological target: T5, synthetic phosphotyrosine peptide Arg-Arg-Leu-Ile-Glu-Asp-Ala-Gle-Tyr-Ala-Ala-Arg-Gly, wherein the tyrosine is phosphorylated
T5 chain: RRLIEDAEYAARG

Molecule: GST fusion protein of SHP-2
PTPase activity against the peptide substrate (660 nm absorbance, malachite green) [1]: 660 nm absorbance approximately 0.6 above background (0.03)

Molecule: GST fusion protein of mitogen-activated protein kinase phosphatase 1 (MKP1)
PTPase activity against the peptide substrate (660 nm absorbance, malachite green) [1]: 660 nm absorbance approximately 0.6 above background (0.03)

inhibitory activity against SHP-1 ([2]; 3-4 μg/ml or 10-100 μg/ml): no obvious inhibitory activity
inhibition of MKP1 [3]: substantial inhibition
inhibitory activity against GSTm8 [4]: no obvious inhibitory activity
Molecule: c1ccc([C@H]2CN3CCSC3=N2)cc1 [levamisole]

Molecule: GST fusion protein of protein tyrosine phosphatase 1B (PTP1B)
PTPase activity against the peptide substrate (660 nm absorbance, malachite green) [1]: 660 nm absorbance approximately 0.6 above background (0.03)

inhibition of SHP-1 compared with sodium stibogluconate ([2]; comparable conditions): less effective
inhibition of PRL-3 compared with sodium stibogluconate [5]: less effective
Molecule: Cc1ccc(C(=O)Nc2ccc(S(=O)(=O)O)c3cc(S(=O)(=O)O)cc(S(=O)(=O)O)c23)cc1NC(=O)c1cccc(NC(=O)Nc2cccc(C(=O)Nc3cc(C(=O)Nc4ccc(S(=O)(=O)O)c5cc(S(=O)(=O)O)cc(S(=O)(=O)O)c45)ccc3C)c2)c1 [Suramin]
inhibition of GST/SHP-1 after washing (reversibility) ([2]; pre-incubated with inhibitor, beads washed): almost completely removed by the washing process

Molecule: [Na+].[Na+].[Na+].[O]=[V]([O-])([O-])[O-] [sodium orthovanadate]
inhibition of PRL-3 compared with sodium stibogluconate [5]: less effective

Molecule: GST fusion protein of SHP-1
PTPase activity against the peptide substrate (660 nm absorbance, malachite green) [1]: 660 nm absorbance approximately 0.6 above background (0.03)

B1: GST fusion protein of PRL-1R86 (protein)
chain: MARMNRPAPVEVTYKNMRFLITHNPTNATLNKFIEELKKYGVTTIVRVCEATYDTTLVEKEGIHVLDWPFDDGAPPSNQIVDDWLRLVKIKFREEPGCCIAVHCVAGLGRAPVLVALALIEGGMKYEDAVQFIRQKRRGAFNSKQLLYLEKYRPKMRLRFKDSNGHRNNCCIQ
in vitro PTPase activity [6]: showed in vitro PTPase activity similar to that of wild type PRL-1

B2: Flag-PRL-1 (protein)
chain: B1 chain with R86S
PTPase activity of anti-Flag immunocomplexes (NIH3T3 transfectants) [6]: a markedly higher PTPase activity (about 23 folds) over that of control transfectants
phosphatase activity of anti-Flag immunocomplexes (WM9 transfectants) [6]: showed phosphatase activities well above the background activity of the vector control cells

B3: Flag-PRL-1R86 (protein)
chain: B1 chain
phosphatase activity of anti-Flag immunocomplexes (WM9 transfectants) [6]: showed phosphatase activities well above the background activity of the vector control cells
